Data on twelve sequences can be found in the supplement of paper PMC9170038.

The data set relates to MS2 coat protein. The data set is described as follows: apparent KD of MS2 coat protein; designed switch direction (-1 OFF switch, 1 ON switch): -1; higher = weaker reporter binding. In a few lines:
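An oligonucleotide input, 200 uM small-molecule ligand, or no input was present during titration of SNAP-549-labelled MS2 coat protein, which was doubled from 0.7 or 1.5 nM to 3 µM. Designed RNA switches had been transcribed on Illumina chips by stalled E. coli RNA polymerase. Apparent KD per design is the median over clusters of curves fitted to normalised cluster fluorescence.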

Setting [1] is: input ligand: microRNA oligo, concentration not stated.
[2] abbreviates: Eterna round: R95, input ligand: FMN 200 uM.
Where [3] appears, read: Eterna round: R95, input ligand: microRNA oligo, concentration not stated.
[4] abbreviates: Eterna round: R95, input ligand: none.

Regarding “GUAGUUCGAGUUAGGAUAUGAUUAAAAUUCGGAUAUCAGAAGGAACUUGAGGAUCACCCAAGUAUAGAUGAUUC [JR_BMEx4_Sub058] (Eterna round: R97, puzzle: Brourd's mod of Exclusion 4)”, the “apparent KD of MS2 coat protein” value (input ligand: FMN 200 uM) stood at 91.6 nM and the “apparent KD of MS2 coat protein” value (input ligand: none) is 38.1 nM.
On to “GUAAUUAAUGUAGGAUAUGCAAGGCGAACCUAAGCAGAAGGACAUGUGGAUCACCCAUGACAUGAGGAUCACCCAUGUAUCGCU [salish99_ExNG1_r4_005] (Eterna round: R96, puzzle: Exclusion NG 1)”, for which the “apparent KD of MS2 coat protein” value reads like this: (input ligand: FMN 200 uM) 109 nM; under setting [1], 122 nM; (input ligand: none) 212 nM.
“AAUGAUUGACGAGGAUAUUGUGGUAGAUCACGACGAGAAGGCGUUUGUCACAUGAGGAUCACCCAUGUGAGCCUUGUGGAUAGA [Ex NG1 #75] (Eterna round: R96, puzzle: Exclusion NG 1)”: the “apparent KD of MS2 coat protein” value reads like this: (input ligand: FMN 200 uM) 160 nM; under setting [1], 20.1 nM; (input ligand: none) 30.9 nM.
For the sequence “AUAGUAGAAGUGAGGAUAUCGUAGAUUUUAGGAAACGAGAAGGCACAUGAGGAUCACCCAUGUAAGAUGGAGGU [JR_BMOE4_Sub051] (puzzle: Brourd's mod of Exclusion 4)”, the “apparent KD of MS2 coat protein” value was 104 nM under setting [2], 263 nM under setting [3] and 124 nM under setting [4].
For the sequence “AAUUAACAUGUAGGAUAUCUGCACGAUUAGUGCAGAGAAGGACAUGAGGAUCACCCAUGUAUAGCGACUUCGGUCGCAAUAAUU [ENG1/2-B1] (Eterna round: R96, puzzle: Exclusion NG 1)”, the “apparent KD of MS2 coat protein” value came out at 161 nM (input ligand: FMN 200 uM), 69.5 nM under setting [1] and 80.6 nM (input ligand: none).
Consider “CUUGUAUAUCAGGAUAUGAUUUUAUAUAUUGGAUCAGAAGGGAUAACAUGAGGAUCACCCAUGUUGUGGAGUGA [JR_Ex6_Sub038] (Eterna round: R97, puzzle: Exclusion 6)”, for which the “apparent KD of MS2 coat protein” value is, setting by setting: (input ligand: FMN 200 uM) 90.5 nM; (input ligand: none) 204 nM.
With “CCGCAAAAGGAGGAUAUCGUAUCGGAUACGAUACGAGAAGGCCUAACAUGAGGAUCACCCAUGUGUCCUAGCGG [Fiskers Ex 6 - 36] (puzzle: Exclusion 6)”, the “apparent KD of MS2 coat protein” value runs as follows: under setting [2], 23.8 nM; under setting [3], 14.8 nM; under setting [4], 14.5 nM.
As to “GUCAACGCAGGAUAUUAGAACUUUUACAUGAGGAUCACCCAUGUUAAUUGGGUCUAAGAAUAAGAAGGGCGAUGAA [JR_Ex5_Sub011] (Eterna round: R97, puzzle: Exclusion 5)”, the “apparent KD of MS2 coat protein” value came out at 15.8 nM (input ligand: FMN 200 uM) and 14 nM (input ligand: none).
The corresponding values for “GUACUGACAGGAUAUACAUGAGGAUCACCCAUGUGCCUUAUCGCUACAAAAGUAGCGAGUAGAAGGGUCUGUAC [Omei Ex3 Model Bachelor's Dilema v18] (Eterna round: R97, puzzle: Exclusion 3)” are 27.1 nM and 16.6 nM.
The corresponding values for “AAAACUGCCUAGGAUAUCUGAAGCCGAGGUAGAAGAGAAGGAGGCACAUGAGGAUCACCCAUGUCCCUCAUAAA [EX6 A.8] (Eterna round: R97, puzzle: Exclusion 6)” are 16.8 nM and 14.3 nM.
For the sequence “CGUGUGUGAGGAUAUGACAAUGGUAUCUUCGGAUACCAUUGUCAGAAGGUACAUGAGGAUCACCCAUGUAGAUC [Exclusion 4 - Mod Brourd Ex 4-3: 20 v.2] (Eterna round: R96, puzzle: Exclusion 4)”, the “apparent KD of MS2 coat protein” value (input ligand: FMN 200 uM) was found to be 115 nM, the “apparent KD of MS2 coat protein” value under setting [1] stood at 41.4 nM and the “apparent KD of MS2 coat protein” value (input ligand: none) amounted to 59.8 nM.
As for “AAAAAGAGAGGAUAUACAUGAGGAUCACCCAUGUGAGGGCACCGCGGGCGCGGGACCCGUAGAAGGCUCAAAAA [Exc;s3-I] (puzzle: Exclusion 3)”, the “apparent KD of MS2 coat protein” value under setting [2] was 16.5 nM, the “apparent KD of MS2 coat protein” value under setting [3] turned out to be 14.7 nM and the “apparent KD of MS2 coat protein” value under setting [4] is 20.5 nM.
